In the DeepSol protein solubility set:

Assay: soluble on expression in E. coli; label from the status in PepcDB or PDB records

Soluble on expression in E. coli, soluble:
MKFDPQKYRELAEKDFEAAWKAGKEILAERSPNELYPRVGFSFGKEHPLFATIQRLREAYLSIGFSEVVNPLIVEDVHVKKQFGREALAVLDRCFYLATLPKPNVGISAEKIRQIEAITKREVDSKPLQEIFHRYKKGEIDGDDLSYLIAEVLDVDDITAVKILDEVFPEFKELKPISSTLTLRSHMTTGWFITLSHIADKLPLPIKLFSIDRCFRREQGEDATRLYTYFSASCVLVDEELSVDDGKAVAEALLRQFGFENFRFRKDEKRSKYYIPDTQTEVFAFHPKLVGSSTKYSDGWIEIATFGIYSPTALAEYDIPYPVMNLGLGVERLAMILYGYDDVRKMVYPQIHGEIKLSDLDIAREIKVKEVPQTAVGLKIAQSIVETAEKHASEPSPCSFLAFEGEMMGRNVRVYVVNENENTKLCGPAYANEVVVYKGDIYGIPKTKKWRSFFEEGVPTGIRYIDGFAYYAARKVEEAAMREQEEVKVKARIVENLSDINLYIHENVRRYILWKKGKIDVRGPLFVTVKAEIE
MGHHHHHHSHMPKVYGSLIDTETRCRHYFTEEDIIAIKFKCCNKYYPCYKCHNEFEKHAIKRWSEPSFNEKAILCGVCKHELTINEYMMVERCPNCQSRFNNRCKYHYHIYFEI
MMSMIEKLKKFTQIPGISGYEERIREEIIREIKDFADYKVDAIGNLIVELGEGEERILFMAHMDEIGLLITGITDEGKLRFRKVGGIDDRLLYGRHVNVVTEKGILDGVIGATPPHLSLERDKSVIPWYDLVIDIGAESKEEALELVKPLDFAVFKKHFSVLNGKYVSTRGLDDRFGVVALIEAIKDLVDHELEGKVIFAFTVQEEVGLKGAKFLANHYYPQYAFAIDSFACCSPLTGDVKLGKGPVIRAVDNSAIYSRDLARKVWSIAEKNGIEIQIGVTGGGTDASAFQDRSKTLALSVPIKYLHSEVETLHLNDLEKLVKLIEALAFEL
MKKIPLGTTDITLSRMGLGTWAIGGGPAWNGDLDRQICIDTILEAHRCGINLIDTAPGYNFGNSEVIVGQALKKLPREQVVVETKCGIVWERKGSLFNKVGDRQLYKNLSPESIREEVAASLQRLGIDYIDIYMTHWQSVPPFFTPIAETVAVLNELKSEGKIRAIGAANVDADHIREYLQYGELDIIQAKYSILDRAMENELLPLCRDNGIVVQVYSPLEQGLLTGTITRDYVPGGARANKVWFQRENMLKVIDMLEQWQPLCARYQCTIPTLALAWILKQSDLISILSGATAPEQVRENVAALNINLSDADATLMREMAEALER
MGDDLPDWRNKLEPVFLEFEDGCVPEEHYYPCIRRREDEEPKISAEEEYYLMVKEVEDSKGFDIDFAKFRCVFNYRPVDLDDNELALEPETTREFMDRLCRKSLEHFNEIHSTKYEFVRFIKANHHVSAGMMYFITFEGKLLSNDDDSKQFQAKLCYCGGTPEIISCELKP
MSLSNIETVPASIEMKPNPTITVFERSPDGGRGLARDMPVRWALEEVGQPYHVRRLSFEAMKEASHLAYQPFGQIPSYEQGDLILFESGAIVMHIAQHHSGLLPEDQLRRARTVAWMFAALNTIEPSILNFTTVWLFERNEPWHEARLARTKEQLLKRLDELSAWLGDREWLEGSFSAADILMICVLRRLESSGILKDYGNLLAYVERGKARPAFKRAFDAQLAVFTAASKNEGHHHHHH
MRGSHHHHHHGMASMTGGQQMGRDLYDDDDKDPMSVIKPDMKIKLRMEGAVNGHPFAIEGVGLGKPFEGKQSMDLKVKEGGPLPFAYDILTTVFCYGNRVFAKYPENIVDYFKQSFPEGYSWERSMNYEDGGICIATNDITLDGDCFIYEIRFDGVNFPANGPVMQKRTVKWEPSTEKLYVRDGVLKGDVNMALLLEGGGHYRCDFKTTYKAKKVVQLPDYHFVDHRIEIKSHDKDYNNVNLHEHAEAHSGLPRQAK
SDLPDSASRVFCGRILSMVNTDDVNAIILAQKNMLDRFEKTNEMLLNFNNLSSARLQQMSERFLHHTRTLVEMKRDLDSIFRRIRTLKGKLARQHPEAFSHIPEASFLEEEDEDPIPPSTTTTIATSEQSTGSCDTSPDTVSPSLSPGFEDLSHVQAGSPAINGRSQTDDEEMTGE

Soluble on expression in E. coli, not soluble:
MKRHYLFSICILTLLLLAACGSSATEDHELEVPEDQETIEIDGEEEDSSQPVFSDEEALVVDDLLEEESRGEEATEHSEPIEEDTSTPSEASGSENVEETEQQPADENNQAFALNVKKFKLELEWQDGDELEMEYEQKKNEKGKAKVEWDGAHKEKMSGKQAVEWMEDFLSQLDLSEGTNSDRLKSQVYAILDIDPSEVEELDLEIEFFDMAGDPLEHHHHHH
MYSNVQPFINSDLTNCFQSQYTEIESLLFNLLDSPVKYTKHIGGTHHFKYSTEPILDILVGVENLHDITSLDEKRLNYVGFYRLHHKYTKKVMMAKFNNFHELKQQVRLHIIQMNTQTFESYLALDYLLSTNDDIALQFNTKKHQILQHSLTIRQYEMQKQQYFEKLCKKY
MTEKDYGQVTGMVHSTESFGSVDGPGIRFIIFLQGCKLRCQYCHNPDTWEMETNNSKIRTVNDVLKEALQYKHFWGKKGGITVSGGEAMLQIDFITALFIEAKKLGIHTTLDTCGFTYRPTPEYHQVLDNLLAVTDLILLDLKEIDEKQHKIVTRQPNKNILQFARYLSDKQIPVWIRHVLVPGLTD
MSLDIAQIALHQLIKRDEQTLDMVLRDSLLPTNAAVEDMMAELHRVYSAKSKAYGLFNEQSELADALRACRKGDEDFLSFSRAATGRLRDELAKYPFAEGGIVLFCQYRYLAVEYLLISVLNSCNSMRVNEQLDISTTHYLDINHADIIARIDLTEWETNPESTRYLTFLKGRVGRKVSDFFMDFLAASEGLDTKAQNRGLLKAVDEYCDEAQLDKNERQNYRQQVHSYCTEQLQSGEEIELASLSQELPPLGEKTFQQFSADQGYELEESFPADRGTLRQLTKFAGSGGGISLNFDALLLGERIFWDPATDTLTIKGTPPNLRDQLQRRTSGGKQLEHHHHHH
MHPTGPQLGPDVLFRESKMKVTLTFNEQRRAAYRQQGLWGDASLADYWQQTARAMPDKIAVVDNHGASYTYSALDHAASCLANWMLAKGIESGDRIAFQLPGWCEFTVIYLACLKIGAVSVPLLPSWREAELVWVLNKCQAKMFFAPTLFKQTRPVDLILPLQNQLPQLQQIVGVDKLAPATSSLSLSQIIADNIPLTTAITTHGDELAAVLFTSGTEGLPKGVMLTHNNILASERAYCARLNLTWLDVFMMPAPLGHATGFLHGVTAPFLIGARSVLLDIFTPDACLALLEQQRCTCMLGATPFVYDLLNLLEKQPADLSALRFFLCGGTTIPKKVARECQQRSIKLLSVYGSTESSPHAVVNLDNSLSRFMHTDGYAAAGVEIKVVDDARKTLPPGCEGEEASRGPNVFMGYFDEPELTARALDEEGWYYSGDLCRMDEAGYIKITGRKKDIIVRGGENISSREVEDILLQHPKIHDACVVAMPDERLGERSCAYVVLKAPHHSLSLEEMAAFFSRKRVAKYKYPEHIVVIEKLPRTASDKIQKFLLRKDIIRRLTQDVCEEIE
MGSDKIHHHHHHMKITTVGLDIAKSVFHFVGVNKAGKLVKKKMIKRKDLLHFLAQIEPCLVVMEACGGANYWAREFEKVGHQVKLIAPQYVVPYRQGNKNDYNDALAIAEAAQRPNMRFVQPKPAEQQDIQMLHRMRERLSKQSTALVNQVRGMLAEYGIVITKGKASFRSKLPDILENADNELTAKGRSIFYQLYEEFNGIEERLKRCDNQVQQETKNNHVCQRLESVPGIGPVTATAFYAAVGEGKDFTNGRHFSAWCGLVPKQHSSGGKDNLLGISKRGNAYLRTLFIHGARAVLYHSDGKGDRFSRWAIALAERRGFNRACVAVANKLARIAWVIAAREDEYRMAV
MPINAAYRGPADLPEVIPVFPLAGALLLPRGQMPLNIFEPRYLAMIDDALRDGHRLIGMIQPDAAHSSETAEKPSLFNVGCVGRITQLAESGDGRYILELTGVSRFKVVDELQVLTPYRQCKVDYFPFGDDFTARKGEDEVDRETLLSVLTDFLKANNLKVDWDGVESAPNEALVNALAMMSPYGPPEKQALLEAPDLKTRAEILIAVTEMDLAKKRTSGDPPLQLEHHHHHH
MSLSDPIKIGFLAPLTGPVSSWGLPGLHGCRLWEDWLNRAGGILVGGRRYPVSIVPFDCGYDPERAMEGARHLVHTEQVKLLMMLGGDTFTPLRGFLTANKVLTSTLLPSDLSPDTRYLIAPSEVHPIYNVTGVDWLARNRPELRRVAMCSQKDALGLPSIATYRAAFEAAGVPVVKEVEYDPEMTDVATIVQPMLDAQPDVLCWCTSYTPMVHAMTEYAHAKGFSGQILSCTLDNYQRLVARTSAEFMEGALFQFPDFDDPKLARKAFFFNRPSTFFKEYNARYPGNWSAVSWEYVAILDIWHAAVEKVASVHPVSVLATMKQMDPVTHAFGPARWWGEGHHHHHH
MRLGICSHTLCPPIEGNIKQHLHNPMKEEEFNELKQNLDSYTPLLPESVTDYFMEKAGVVTSDQSVKKLVSLLAHKFVTDIAVSSFQYHRINQKAAQKDKRFAKEKKPTFQLVDLEKALEEVGISISRPHYYM
MDSGDFSPMQSNFSLGFMSFEDIPEDARTTEMIDKIVFEEDKEYDHTQDSFRYGRVTTGVSYNLVTGKIPKTVFEQVKAKDDENDNVEFEMEHLEDKETAHKTQTFDELYESQMPKYFDYQSNFSDVNGIWTLLFDQNHYEKMSTFELQAAICAALNSKHFMMICVGIDAFNAVTGVEMSAKDRVVFRMALTRAVAGEFQPPLVKVAPKQLTGVSPMKRDISEVTSSIDVLFVPVIGVTDEVENNRFLIVVRVKGT
DEIIDGEDELEQDDPFEGEDIDPESIQEPEASYDSSSSPSGASNAEDDWQDEHRVRKFHINGVTVKAIAERVQYYDADGKLVTESFKDYTRKTMAKQFTSMDDFVKRWQDADKKQAIIDELAEEGIIWEALELEVGKDLDPFDMICHVVYDQPALTRKERADNVKKRNYFTKYGETAQQVLNNLLDKYADEGVQEIENIHVLKVKPFDEMGRPAEIVKKCFGGKEQYLEAISELEAEIY
MNEIQKYIAANEPKIMEDLFSLIRIPSISALPEHHDDMLACAQRWAQLLLEAGVDEALVMPSKGNPIVFAQKIVDPNAKTVLVYAHYDVMPAEPLELWKSQPFEPEVRDGYIWARGADDDKGQSFIQVKAFEYLVKNELLKNNVKFIFEGEEEIGSPSLEAFCEEHKELLKADVILVSDTSMLGAELPSLTTGLRGLAYWEIEVTGPNRDLHSGHFGGAVANPINVLCEIISKVTDKDGRITVPGFYDDVEEVPQAEREMIAHIPFDEKKYKEAIGVKELFGEKGYSTLERNSCRPSFDVCGIWGGYTGEGSKTVLPSKAYAKVSCRLVAHQDHHKISQMFADYILQMAPDTVQVKVTPMHGGQGYVCPISLPAYQAAEKGFEIAFGKKPLAVRRGGSIPIISTFEQVLGTKTVLMGFGLESDAIHSPNENFSLDIFRKGIEAVIEFHQEYAKR
MGSDKIHHHHHHMQILFFMKIIRDPIHGYIEVEDFVLQIISTEIFQRLRHITQTGLAYLVYPGMRHTRFEHSLGVMHLAKELTRYIKINSEQYTDLDFINEEYLKLVGLSGLLHDIGHLPFSHTFENALSLAKEVYGIDVEYYGKKTHVIFGNRVIDYYLGNYLDKLSKNYDVVNFVQRVISSTPRTKEESLASLIISSPLDADRGDYLLRDSYFAGVGYGNFDIERIKRSLIYVNGKLAVLKKAIPVVEQFLLARMYMYETIYFHSVVGLYNAVLSHAVVKLIQKNLIPNVAPENYLKLNDVVIMSKLNEAGREFFDAIVYRKGFKRYKKDLTGNCYETLEKKRKEINEIMRENNGLILYHDFYDVPYSEDEIFVYDDDELKPLSTESKIVSSLTIIKKGIVGYHESAEDKMKKIYEILQECPL
